Test [1] concerns the target T1, Human TROP2 ECD (31-274 AA), biotinylated (human, UniProt P09758 31-274, biotinylated (site not stated)).
T1 construct: also called tumor-associated calcium signal transducer 2; Human TROP2-biotin
T1 sequence: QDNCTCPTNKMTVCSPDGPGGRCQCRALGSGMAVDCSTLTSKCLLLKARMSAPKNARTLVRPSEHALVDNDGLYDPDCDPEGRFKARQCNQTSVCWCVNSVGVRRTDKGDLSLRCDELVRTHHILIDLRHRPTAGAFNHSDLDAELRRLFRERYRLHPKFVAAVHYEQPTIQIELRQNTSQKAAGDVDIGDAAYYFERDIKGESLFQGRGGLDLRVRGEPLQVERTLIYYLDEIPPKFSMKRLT
Briefly: BLI (Octet), dissociation half-life from biotinylated human TROP2 ECD. On the technique in general: Biolayer interferometry detects binding as a change in optical thickness at a sensor tip.

Test [2] addresses T1, Human TROP2 ECD (31-274 AA), …. Description: ELISA, ratio of EC50 to that of TBD-1 wt. Background: ELISA stands for enzyme-linked immunosorbent assay.
Description: (§1) Binding was detected using a standard horse radish peroxidase secondary antibody. The concentration of the TBD required to achieve 50% maximal signal (EC₅₀) was calculated.
Test [3] shares this target. Description: ELISA: biotinylated TROP2 captured on neutravidin plate, Fab titrated, HRP secondary antibody.
Description: as §1
Test [4] has the same target. Briefly: ELISA, biotinylated TROP2 ECD on neutravidin plate, Fab titrated.
Description: as §1
For test [5] the target is unchanged. Description: BLI (Octet), biotinylated human TROP2 ECD on SAX sensor, Fab 6.25-50 nM.
Description: Kinetic binding was measured using biolayer interferometry (BLI). […] The TBDs diluted in buffer were then associated onto the antigen loaded biosensors. Sensors were then transferred to buffer where the TBD constructs then dissociated from the sensors. Association and dissociation rates were measured in real time using an Octet® instrument.
Test [6] deals with T2, Human TROP2 ECD (31-274 AA), biotinylated (human, UniProt P09758 31-274, biotinylated (site not stated)).
T2 construct: captured on neutravidin plates; also called TROP2-biotin; Trop2-biotin
T2 sequence: T1 sequence
Briefly: ELISA, Fab on captured biotin-TROP2.

Test [7] deals with T2, Human TROP2 ECD (31-274 AA), …. Briefly: ELISA, Fab on captured biotin-TROP2. This is another data set of the same source.
Test [8] deals with T3, Peptide-36 (cysteine pairing not given here; also: biotinylated, site not given here).
T3 peptide: VDFCYQYGWPICSR
Briefly: ELISA, Fab on captured biotin-peptide.

Test [9] addresses T4, Peptide-40 (cysteine pairing not given here; also: biotinylated, site not given here).
T4 peptide: VDFCYLYSWPICTK
Briefly: ELISA, Fab on captured biotin-peptide.

The target of test [10] is T5, Peptide-35 (cysteine pairing not given here; also: biotinylated, site not given here).
T5 peptide: EDFCYWYQWPICSD
Briefly: ELISA, Fab on captured biotin-peptide.

Test [11] addresses T6, Peptide-37 (cysteine pairing not given here; also: biotinylated, site not given here).
T6 peptide: VDFCYLYNWPVCSK
Description: ELISA, Fab on captured biotin-peptide.

The target of test [12] is T7, Peptide-8 (cysteine pairing not given here; also: biotinylated, site not given here).
T7 peptide: VDFCGLYHWPICYQ
Briefly: ELISA, Fab on captured biotin-peptide.

In test [13] the target is T8, Peptide-38 (cysteine pairing not given here; also: biotinylated, site not given here).
T8 peptide: VDFCSIYHWPVCYV
Briefly: ELISA, Fab on captured biotin-peptide.

Test [14] deals with T9, Peptide-33 (cysteine pairing not given here; also: biotinylated, site not given here).
T9 peptide: PDFCYMYNWPVCVT
Description: ELISA, Fab on captured biotin-peptide.

The target of test [15] is T10, Peptide-25 (cysteine pairing not given here; also: biotinylated (site not given here)).
T10 peptide: VDFCKIYSWPVCHQ
Briefly: ELISA, Fab on captured biotin-peptide.

The target of test [16] is T11, Peptide-64 (cysteine pairing not given here; also: biotinylated, site not given here).
T11 peptide: PDFCAVYRWPICYQ
Description: ELISA, Fab on captured biotin-peptide.

The target of test [17] is T12, Peptide-42 (cysteine pairing not given here; also: biotinylated, site not given here).
T12 peptide: IDFCAMYHWPICDT
Description: ELISA, Fab on captured biotin-peptide.

The target of test [18] is T13, Peptide-41 (cysteine pairing not given here; also: biotinylated, site not given here).
T13 peptide: VDFCGLYHWPICYQVY
Description: ELISA, Fab on captured biotin-peptide.

In test [19] the target is T14, Peptide-63 (cysteine pairing not given here; also: biotinylated, site not given here).
T14 peptide: IDFCLIYNWPVCDT
Description: ELISA, Fab on captured biotin-peptide.

The target of test [20] is T15, Peptide-3 (cysteine pairing not given here; also: biotinylated, site not given here).
T15 peptide: IDFCMLYNWPICAG
Description: ELISA, Fab on captured biotin-peptide.

Test [21] deals with T16, Peptide-62 (cysteine pairing not given here; also: biotinylated, site not given here).
T16 peptide: IDFCAVYKWPVCQV
Description: ELISA, Fab on captured biotin-peptide.

The target of test [22] is T17, Peptide-39 (cysteine pairing not given here; also: biotinylated, site not given here).
T17 peptide: VDFCGLYHWPICYQVD
Description: ELISA, Fab on captured biotin-peptide.

Test [23] addresses T18, Peptide-32 (cysteine pairing not given here; also: biotinylated, site not given here).
T18 peptide: PDFCYMYGWPICDS
Description: ELISA, Fab on captured biotin-peptide.

Test [24] has as its target T19, Peptide-43 (cysteine pairing not given here; also: biotinylated, site not given here).
T19 peptide: VDFCALYHWPICYQ
Briefly: ELISA, Fab on captured biotin-peptide.

Test [25] has as its target T20, Peptide-6 (cysteine pairing not given here; also: biotinylated, site not given here).
T20 peptide: IDFCLIYNWPVCDT
Briefly: ELISA, Fab on captured biotin-peptide.

Test [26] addresses T21, Peptide-13 (cysteine pairing not given here; also: biotinylated (site not given here)).
T21 peptide: VDFCELYRWPICNS
Description: ELISA, Fab on captured biotin-peptide.

The target in test [27] is T22, Peptide-18 (cysteine pairing not given here; also: biotinylated (site not given here)).
T22 peptide: MDFCQIYDWPICRL
Description: ELISA, Fab on captured biotin-peptide.

For test [28], the target named is T7, Peptide-8. Briefly: ELISA, Fab on captured biotin-peptide.
Description: (§2) Binding was measured in a standard ELISA format. […] Bound TBDs were detected using a standard horse radish peroxidase conjugate secondary antibody. The ELISA signal was plotted versus the log-scale concentration of TBD. The concentrations of TBD required to observe half maximal binding signal (EC₅₀s) were calculated using Graphpad Prism software.
The target of test [29] is T23, Peptide-20 (cysteine pairing not given here; also: biotinylated (site not given here)).
T23 peptide: VDFCSFYRWPICET
Briefly: ELISA, Fab on captured biotin-peptide.

Test [30] concerns the target T24, Peptide-5 (cysteine pairing not given here; also: biotinylated, site not given here).
T24 peptide: VDFCKLYNWPVCQT
Description: ELISA, Fab on captured biotin-peptide.

The target in test [31] is T10, Peptide-25. Briefly: ELISA, Fab on captured biotin-peptide.
Description: as §2
Test [32] has as its target T25, Peptide-7 (cysteine pairing not given here; also: biotinylated, site not given here).
T25 peptide: EDFCKLYNWPICYQ
Description: ELISA, Fab on captured biotin-peptide.

Test [33] deals with T15, Peptide-3. Briefly: ELISA, Fab on captured biotin-peptide.
Description: as §2
In test [34] the target is T26, Peptide-2 (cysteine pairing not given here; also: biotinylated (site not given here)).
T26 peptide: IDFCAVYKWPVCQV
Briefly: ELISA, Fab on captured biotin-peptide.

Test [35] has as its target T27, Peptide-4 (cysteine pairing not given here; also: biotinylated, site not given here).
T27 peptide: VDFCKIYAWPICGS
Description: ELISA, Fab on captured biotin-peptide.

For test [36], the target named is T28, Peptide-10 (cysteine pairing not given here; also: biotinylated (site not given here)).
T28 peptide: IDFCAIYQWPVCRS
Briefly: ELISA, Fab on captured biotin-peptide.

In test [37] the target is T29, Peptide-12 (cysteine pairing not given here; also: biotinylated (site not given here)).
T29 peptide: PDFCAVYRWPICYQ
Briefly: ELISA, Fab on captured biotin-peptide.

Test [38] addresses T30, Peptide-14 (cysteine pairing not given here; also: biotinylated (site not given here)).
T30 peptide: LDFCKIYDWPICHL
Description: ELISA, Fab on captured biotin-peptide.

Test [39] has as its target T31, Peptide-1 (cysteine pairing not given here; also: biotinylated (site not given here)).
T31 peptide: IDFCAMYQWPICDT
Briefly: ELISA, Fab on captured biotin-peptide.

Test [40] deals with T32, Peptide-17 (cysteine pairing not given here; also: biotinylated (site not given here)).
T32 peptide: IDFCLLYDWPICGR
Briefly: ELISA, Fab on captured biotin-peptide.

In test [41] the target is T1, Human TROP2 ECD (31-274 AA), …. Description: ELISA: biotinylated TROP2 captured on neutravidin plate, Fab titrated, HRP secondary antibody. The source holds these as a separate data set.
Description: as §1

Where a chain is given by its changes, count along the chain named. Names and notes keep the numbering of the source. Like-named read-outs stand apart in the source and are kept apart here. Where no end group is shown, it is not given here.

As a reminder, the EC50 is the concentration needed to bring the measured effect to its halfway point. Read a low EC50 as a more potent agent. One may read the Kd as the free concentration of one partner at which half of the binding sites on the other are occupied at equilibrium, for simple one-to-one binding. Read a low Kd as a tighter complex.

B1: TBD-11 (anti-TROP2 Fab, HC R98A) (Fab, V domains shown)
VH: QVQLQQSGSELKKPGASVKVSCKASGYTFTNYGMNWVKQAPGQGLKWMGWINTYTGEPTYTDDFKGRFAFSLDTSVSTAYLQISSLKADDTAVYFCAAGGFGSSYWYFDVWGQGSLVTVSS
VL: DIQLTQSPSSLSASVGDRVSITCKASQDVSIAVAWYQQKPGKAPKLLIYSASYRYTGVPDRFSGSGSGTDFTLTISSLQPEDFAVYYCQQHYITPLTFGAGTKVEIKR
notes: also called TBD-11 (HC R98A mutant)
Take B1: the “t1/2” value in [1] was 10 min. The “Fold shift in EC50 relative to wt” value in [2] was 19 fold. The EC50 in test [3] and in test [4] was 3.8 nM throughout. This molecule also showed a Kd in test [5] of 3.88 nM.

B2: TBD-12 (anti-TROP2 Fab, HC G99A) (Fab, V domains shown)
VH: B1 VH with A98R, G99A
VL: B1 VL
As to B2, the “t1/2” value in [1] worked out at 39 min. The “Fold shift in EC50 relative to wt” value in test [2] was determined as 1 fold. The EC50 in [3] and in test [4] was 0.2 nM each time. For the same molecule, binding in test [5] was put at a Kd of 0.492 nM.

B3: TBD-22 (HC D109A) (Fab, V domains shown)
VH: B1 VH with A98R, D109A
VL: B1 VL
notes: Fab; also called HC D109A mutant
Turning to B3, the EC50 was determined as 1.1 nM in test [6]; 1.1 nM in test [7]; 2.2 nM in [8]; 4.6 nM in test [9]; 7.7 nM in [10]; 1.7 nM in test [11]. The EC50 is 0.6 nM in test [12]; 2 nM in test [13]; 1.5 nM in [14]; 2.8 nM in [15]; 1.7 nM in test [16]; 0.8 nM in [17]. Also, the EC50 stood at 6 nM in test [18]; 1.7 nM in [19]; 3 nM in [20]; 0.9 nM in [21]; 4.6 nM in test [22]; 2.1 nM in [23]. Besides, the EC50 in test [24] worked out at 0.9 nM; in test [25], 1.4 nM; in [26], 3.9 nM; in [27] it was 7.8 nM; in [28], 0.6 nM; in [29], 5.3 nM. Also, the EC50 in [30] was 0.9 nM; in test [31], 1.9 nM; in test [32], 3.6 nM; in test [33] it was 1.6 nM; in test [34], 1.1 nM; in test [35], 1.2 nM. The EC50 in [36] came to 1 nM; in test [37], 0.6 nM; in [38], 5.3 nM; in [39], 1 nM; in test [40], 2.6 nM.

B4: TBD-15 (anti-TROP2 Fab, HC G102A) (Fab, V domains shown)
VH: B1 VH with A98R, G102A
VL: B1 VL
As to B4, the “t1/2” value in test [1] was determined as 1 min. The EC50 in test [41] and in [4] was 72.2 nM each time. The “Fold shift in EC50 relative to wt” value in test [2] was found to be 361 fold. Further, the Kd in test [5] turned out to be 5.71 nM.

B5: TBD-16 (anti-TROP2 Fab, HC S103A) (Fab, V domains shown)
VH: B1 VH with A98R, S103A
VL: B1 VL
Take B5: in test [1], the “t1/2” value was 103 min. The values for the EC50 in [41] and in test [4] were 0.177 nM and 0.2 nM, respectively. Moreover, the “Fold shift in EC50 relative to wt” value in [2] came to 1 fold. In [5], the Kd stood at 0.211 nM.

B6: TBD-14 (anti-TROP2 Fab, HC F101A) (Fab, V domains shown)
VH: B1 VH with A98R, F101A
VL: B1 VL
Regarding B6, in test [1], the “t1/2” value is 4 min. Further, the EC50 in test [41] and in test [4] was 38.6 nM each time. Further, in [2], the “Fold shift in EC50 relative to wt” value was 193 fold. This molecule yielded a dissociation constant (Kd) in [5] of 18.7 nM.

These data come from patent US20230357429A1 (JANUX THERAPEUTICS, published 2023).
